Measured values reported in patent US8765431B2, “Method for enzymatic production of decarboxylated polyketides and fatty acids” (The Regents of the University of Michigan, priority 2009, dated 2014).
Positions count from the first letter of the chain named. Names and notes keep the numbering of the source.

B1: H266R: CurM TE control mutation in the catalytic triad (protein)
chain: MEEKFLEFGGNQICLCSWGSPEHPVVLCIHGILEQGLAWQEVALPLAAQGYRVVAPDLFGHGRSSHLEMVTSYSSLTFLAQIDRVIQELPDQPLLLVGHSMGAMLATAIASVRPKKIKELILVELPLPAEESKKESAVNQLTTCLDYLSSTPQHPIFPDVATAASRLRQAIPSLSEEFSYILAQRITQPNQGGVRWSWDAIIRTRSILGLNNLPGGRSQYLEMLKSIQVPTTLVYGDSSKLNRPEDLQQQKMTMTQAKRVFLSGGRNLHIDAAAALASLILTS
B2: R205A: CurM TE point mutant R205A (protein)
chain: B1 chain with R205A, R266H
B3: R205Q: CurM TE point mutant R205Q (protein)
chain: B1 chain with R205Q, R266H
B4: N211A: CurM TE mutant of conserved Asn interacting with R205 (protein)
chain: B1 chain with N211A, R266H
B5: N267A: CurM TE mutant of conserved Asn next to the catalytic His (protein)
chain: B1 chain with R266H, N267A
B6: R205E: CurM TE point mutant R205E (protein)
chain: B1 chain with R205E, R266H

What was measured:
Type in all cases: biochemical, Lyngbya majuscula
[1] = system: CurM ST and TE; assay: Coupled ST-TE one-pot reaction (HPLC, LC-MS); conditions: from model substrate (3R)-1-ACP
Description: With the order of the ST and TE reactions established for the acyl-ACP intermediate, the next investigation was to couple the two reactions in one pot. […] Under the same reaction conditions, it was discovered that the CurM TE catalyzed hydrolysis reaction with sulfonated product (3R)-2-ACP was about 800-fold faster than with (3R)-1-ACP. Moreover, TE catalyzed hydrolysis of (3R)-2-ACP was about 120-fold faster than (3S)-2-ACP (FIG. 7).
(§1) Next, experiments were performed to assess whether the proposed sulfonated intermediate (3R)-2 (FIG. 3A) is released following hydrolysis of (3R)-2-ACP, or whether formation of 3 (FIG. 3B) occurs directly by a coordinated decarboxylative elimination process. First, the ST-TE coupled reactions with (3R)-1-ACP were analyzed by LC-MS and a single product was confirmed to be (3R)-2 by co-injection with the corresponding authentic standard (FIG. 3A iii). Due to the expected volatility of 3, the contents of the coupled reaction were extracted with hexane and analyzed by GC-MS. A second product was thus detected and confirmed to be 3 by co-injection with the corresponding authentic standard (FIG. 3B iv). […]
(§2) The ST and TE assays were performed using R)-1-ACP and (3S)-1-ACP substrates. […] All the reactions were incubated at room temperature, quenched by addition of 10% formic acid, and analyzed by reverse-phase HPLC using Jupiter C4 column. […]

[2] = system: CurM TE; assay: TE-catalyzed decarboxylative elimination to 3 (GC-MS); conditions: in 1 hour; free authentic (synthetic) substrate
Description: as §1, with “First, the ST-TE coupled reactions with (3R)-1-ACP were analyzed by LC-MS and a single product was confirmed to be (3R)-2 by co-injection with the corresponding authentic standard (FIG. 3A iii).” left out
as §2, with “column. The ACP fractions were collected, lyophilized and analyzed by FTICR-MS and IRMPD.” for “column.”
The samples and authentic standard were analyzed by a 6890N gas chromatograph equipped with a 5973 mass selective quadrupole detector (Agilent). […] Total ion chromatograms were recorded using a mass range of 60-420 amu, and the selective ion chromatograms were recorded by monitoring the two to three most abundant masses plus the parent masses of target compounds.

[3] = system: CurM TE; assay: Steady-state kinetic analysis of TE hydrolysis using CoA-linked substrates; conditions: steady-state kinetics
Description: (3S)-1-ACP and (3R)-1-ACP were prepared as the TE substrates to test its stereoselectivity for the β-hydroxyl group. The reactions were analyzed by reverse-phase HPLC, and the separated ACP fractions were examined by Fourier transform ion cyclotron resonance mass spectrometry (FTICR-MS) and infrared multiphoton dissociation (IRMPD) (16) techniques. In addition, the chain-release products were detected by LC-MS and confirmed by co-injection with authentic standards. […] However, TE-catalyzed hydrolysis of (3S)-1-ACP was about 5-fold faster than with (3R)-1-ACP (FIG. 5A). […] However, based on bioinformatic analysis of PKS ketoreductase (KR) sequences (17), the CurM KR was predicted to reduce the β-keto to a (R)-β-hydroxyl group in the full-length chain intermediate.
HPLC-based analyses of the TE hydrolysis were performed using XBridge C18 column (4.6×250 mm, 5 μm, Waters) on the Gold HPLC system equipped with an autosampler and controlled by 32 Karat software (Beckman Coulter). Samples were eluted with a linear gradient from 10% to 90% of MeOH/H2O (10 mM CH3CO2NH4). For steady state kinetic studies. TE hydrolysis was examined in 40 μl 50 mM Tris-HCl buffer (pH 7.0) with 100 μM, 200 μM, 500 μM, 1000 μM and 2000 μM (3R)-1-CoA or (3S)-1-CoA. […] The TE hydrolysis reaction was measured by consumption of CoA substrates. […]

[4] = system: CurM ST; assay: ST sulfonation of free acid and ACP-linked substrates (LC-MS, HPLC, FTICR-MS); conditions: in the presence of ST and PAPS
Description: Based on the known mechanism of ST enzyme function, CurM ST was predicted to bind to PAPS, and transfer a sulfonate moiety to the β-hydroxyl group of the intermediate tethered to or released from CurM ACP (FIG. 1B). First, the ST substrate was identified by testing the sulfonation of 1 and 1-ACP. The sulfonation of 1 was analyzed by LC-MS, and that of 1-ACP was examined by HPLC and FTICR-MS. […] Likewise, the stereoselectivity of ST for the β-hydroxyl group was determined by comparing the sulfonation efficiency of (3S)-1-ACP and (3R)-1-ACP. Under the same reaction condition, ST sulfonation with (3R)-1-ACP was about 2.5-fold faster than with (3S)-1-ACP (FIG. 6). Thus, CurM ST stereoselectivity is consistent with the predicted formation of a (R)-β-hydroxyl group by CurM KR.
The ST and TE assays were performed using R)-1-ACP and (3S)-1-ACP substrates. Typically, for the ST reactions, about 300 μM ACP-linked substrate was added with 2 μM ST and 2 mM PAPS in 50 mM Tris-HCl buffer (pH 7.0). For the TE reactions, about 300 μM ACP-linked substrate was added with 2 μM TE in 50 mM Tris-HCl buffer (pH 7.0). All the reactions were incubated at room temperature, quenched by addition of 10% formic acid, and analyzed by reverse-phase HPLC using Jupiter C4 column. The ACP fractions were collected, lyophilized and analyzed by FTICR-MS and IRMPD. […]

[5] = system: ACP with the sulfated substrate; assay: TE point mutant activity assay (liberation of holo ACP, HPLC); conditions: for Activity compared to wild type: 1 min; for % Activity: relative to wild type CurM TE and free hydrolysis without enzyme, quenched after 1 min
Description: The activity of these mutants was tested using the same assay described previously (28). A one-pot reaction was used where CurM ACP was loaded with a synthesized substrate mimic (FIG. 1B) using Svp, after which CurM ST sulfates the β-hydroxyl. Lastly, CurM TE was added and the reaction is quenched after 1 minute. The liberation of holo ACP was detected by a shift on the HPLC. The ratio of holo ACP to ACP with the sulfated substrate was measured. Mutant activity was compared to the activity of wild type CurM TE and free hydrolysis without enzyme in order to obtain percent activity for the mutants (Table 3).
TE activity was assayed using a modification of the protocol developed by Gu et. al. (28). To generate the sulfated substrate for the TE assay, 225 μM loaded ACP was incubated with 5 μM ST, 1.75 mM PAPS (Sigma), in 100 mM Tris pH 7.9 at room temperature for 10 min. Four μM TE was then added to the mixture and the reaction was quenched with 10% formic acid after 1 min. The samples were analyzed by reverse phase HPLC using a Jupiter C4 column (250×2.0 mm, 5 μm, 300 Å, Phenomenex) and a linear elution gradient from 30% to 90% CH3CN (0.1% CF3CO2H)/H2O (0.1% CF3CO2H) over 45 min.

Molecule | Activity compared to wild type [5] | % Activity [5] [%] | also measured
CCCCCCCCCC(C[C@H](CC(=O)O)OS(=O)(=O)O)OC (mixture of isomers) [(3R)-2, (3R,5RS)-3-Sulfonatooxy-5-methoxytetradecanoic acid] | – | – | Level of (3R)-2 as a product of the TE reaction [1]: greater than 50%; Conversion to 3 by TE [2]: about 2 % conversion
CCCCCCCCCC(C[C@H](O)CC(=O)O)OC (mixture of isomers) [(3S)-1, (3S,5RS)-3-Hydroxy-5-methoxytetradecanoic acid] | – | – | Substrate preference of TE [3]: preferred substrate
CCCCCCCCCC(CC(O)CC(=O)O)OC (stereo not shown) [compound 1] | – | – | Substrate conversion by ST [4]: No substrate conversion
B1 | 1 % of WT | 1.4 ± 0.2 | –
B2 | – | 6.1 ± 3.1 | –
B3 | – | 1.8 ± 0.3 | –
B4 | catalytic activity, but at a reduced rate | 54.7 ± 1.8 | –
B5 | catalytic activity, but at a reduced rate | 38.4 ± 3.1 | –
B6 | – | 2.3 ± 2.1 | –
